Measurements reported in the nanobody polyreactivity screen of Harvey et al. (2022).

Assay: yeast display, Sf9 membrane polyspecificity reagent, FACS + sequencing; frameworks hold sequencing errors
Summary of the method: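 Polyreactivity labels are assigned by the sorting gate from which each nanobody was recovered. The gates were low and high (top ~1%), set on anti-HA fluorescence for expression and streptavidin fluorescence for reagent binding. Before sorting, galactose-induced (36–48 hours) yeast display cells were stained for 1 hour at 4 °C with 10% biotinylated, detergent-solubilized Sf9 membrane reagent.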

Row | Sequence | polyreactivity (PSR sort gate)
1 | QVQLVESGGGLVQAGGSLRLSCAASGSIFAYYAMGGYRQAPGKERELVAAITSGDSTYYADSVKGRFTISRDNAKNTVYLQMNSLKPEDTAVYYCAADHIWFYFYLYDYWGQGTQVTVSS | low polyreactivity
2 | QVQLVESGGGLVQAGGSLRLSCAASGSIFAYYAMGWYRQAPGKEMELVAAITRGGTTYYADSVKGRFTISRDNAKNTVYLQMNSLKPEDTAVYYCAVYYYSGTAGYRYGYWGQATQVTVSS | high polyreactivity
3 | QVQLVESGGGLVQAGGSLRLSCAASGSIFAYYAMGWYRQAPGKEREFVARITYSTDGTYYADSVKGRFTISRDNAKNTVYLQMNSLKPEDTAVYYCAVDTWWGFKRYKFDYWGQGTQVTVSS | low polyreactivity
4 | QVQLVESGGGLVQAGGSLRLSCAASGSIFAYYAMGWYRQAPGKERELVAAISRRGGSTYYADSVKGRFTISRDNAKNTGYLQMNSLQPEDTAVYYCAADIGPRYDSWGLGTQVTVSS | high polyreactivity
5 | QVQLVESGGGLVQAGGSLRLSCAASGSIFAYYAMGWYRQAPGKERELVADITSSGGITYYADSVKGRFTISRDNAKNTVYLQMISLKPEDTAVYYCNADSWAIGGGSYPFDYWGQGTQVTVSS | low polyreactivity
6 | QVQLVESGGGLVQAGGSLRLSCAASGSIFAYYAMGWYRQAPGKERELVARIRRRSSSTFYADSVKGRFTISRDNAKYTVYLQMNSLKPEDTAVYYCAVRGPGTSTYWYHEYEYWGQGTQVTVSS | high polyreactivity
7 | QVQLVESGGGLVQAGGSLRLSCAASGSIFCDKAMGWYRQAPGKERELVAAISIVGSTSYADSVKGRFTISRDNANNTVYLQMNSLKPEDTAVYYCAAENVRSDTGFDYWGQGTQVTVSS | low polyreactivity
8 | QVQLVESGGGLVQAGGSLRLSCAASGSIFDANAIGWYRQAPGKERELVAAIDSGDITNYADSVKGRFTISRDNAKNTVYLQMNSLKPEDTAVYYCAAEWHYIYAYDYWGQGTQVTVSS | low polyreactivity
9 | QVQLVESGGGLVQAGGSLRLSCAASGSIFDAYAMGWYRPATGKERELVAAITYSGGSTYYADSVKGRFTISRDNAKNTVYLQMNSLKPEDTAVYYCNTDSRVRTWFRAFTYDSWGQGTQVTVSS | low polyreactivity
10 | QVQLVESGGGLVQAGGSLRLSCAASGSIFDAYAMGWYRQAPGKERELVAAISLSDTSTYYADSVKGRFTISRDNAKNTVYLQMNSLKPEDTAVYYCAAEFYIAYIEYDYWGQGTQVTVSS | high polyreactivity
11 | QVQLVESGGGLVQAGGSLRLSCAASGSIFDDNAMGWYRPAPGKERELVATINYGGGRTSYADSVKGRSTISRDNAKNTVYLQMNSLKPEDTAVYYCAADPRQKEDYWGQGTQVTVSS | low polyreactivity
12 | QVQLVESGGGLVQAGGSLRLSCAASGSIFDDNAMGWYRQAPGKERELVAAITSTDSTNYADSVKGRFTISRDNAKNPVYLQMNSLKPEDTAVYYCNAESLGWYRLYTVDYWGQGTQVTVSS | low polyreactivity
13 | QVQLVESGGGLVQAGGSLRLSCAASGSIFDDYAMGWYRPAPGKEREVVAAISSGGSTYYADSVKGRFTISRDNAKNTVYLQMNSLKPEDTAVYYCNALYPQVGFGYWGQGTQVTVSS | low polyreactivity
14 | QVQLVESGGGLVQAGGSLRLSCAASGSIFDDYAMGWYRQAAGKERELVAAITWNGGSTYADSVKGRFTISRDYAKNTVYLQMHSLKPEDTAVYYCNRGGAFNTRNEITRYGYWGQGTQVTVSS | low polyreactivity
15 | QVQLVESGGGLVQAGGSLRLSCAASGSIFDDYAMGWYRQAPGKEREFVADISYNGGTTYSADSVKGRFTISRDNAKNTVYLQMNSLKPEDTAVYYCAADRTNYTYYLPYDYWGPGTQVTVSS | low polyreactivity
16 | QVQLVESGGGLVQAGGSLRLSCAASGSIFDDYAMGWYRQAPGKERELVAAISWSGGSTYYADSVKGRFTISRDNAKNTVYLQMNSLKPEDTAVYYCAAYDYDYLYGEYYWGQGTQVTVSS | low polyreactivity
17 | QVQLVESGGGLVQAGGSLRLSCAASGSIFDDYAMGWYRQAPGKERELVAAITSGGSTYYADSVKGRFTISRDNAKNTVYLQMNSLKPEDTAVYYCAAPENKSDEYDYWGQGTQVTVSS | low polyreactivity
18 | QVQLVESGGGLVQAGGSLRLSCAASGSIFDDYAMGWYRQAPGKERELVATITSGDTTNYADSVKGRFTISRDNAKNTVYLQMNSLKPEDTAVYYCAADYLTSRSRTFDYWGQGTQVTVSS | low polyreactivity
19 | QVQLVESGGGLVQAGGSLRLSCAASGSIFDENAMGWYIQAPGKERELVAAITGSGVRTYYADSVKGRFTISRDNAKTTVYLQMNSLKPEDTAVYYCAAETLGVYDYESYTYYWGQRTQVTVSS | high polyreactivity
20 | QVQLVESGGGLVQAGGSLRLSCAASGSIFDEYAMGWYRQAPGKERELVAVISTSGSTYYADSVKGRFTISRDNAKNPVYLQMNCLKPEDTGVYSSNAAIYTSSYRSYDYWGQGTQVTVTS | low polyreactivity
21 | QVQLVESGGGLVQAGGSLRLSCAASGSIFDFNAMGWYRQAPGKERELVAAIDDIDDSTYYSDSVKGRFTISRDNAKNTVYLQMNSLKPEDTAVYYCAAELRPGYRSSYGLIYDYWGQGTQVTVSS | low polyreactivity

Row | Sequence | polyreactivity (PSR sort gate)
22 | QVQLVESGGGLVQAGGSLRLSCAASGSIFDFYAMGWYRQAPGKERELVAAISGSGGSTYYADSVKGRFTISRDNAKNTVYLQMNSLKPEDTAVYYCSYYYWGQGTQVTVSS | low polyreactivity
23 | QVQLVESGGGLVQAGGSLRLSCAASGSIFDFYAMGWYRQAPGKVRELVAAITSGSNTYYADSVKGRFTISRDNAKNTVYLQMNSLKPEDTAVYYCAARRRIYRSMGYWGQGTQVTVSS | low polyreactivity
24 | QVQLVESGGGLVQAGGSLRLSCAASGSIFDGNALGWYRQAPGKERELVAAISYRGGSTYYADSVKGRFTISRDNAKNTVYLQMNSLKPEDTAVYYCAAGSISTPGRGVDKPDPYDYWGQGTQVTVSS | low polyreactivity
25 | QVQLVESGGGLVQAGGSLRLSCAASGSIFDGNAMGWYRQAPGKERELVAAITNSGGSTYYADSVKGRFTISRDNAKNTVYLQMNSLKPEDTAVYYCNALPFAWRRYRWVRTMYYWGQGTQVTVSS | low polyreactivity
26 | QVQLVESGGGLVQAGGSLRLSCAASGSIFDGSAMGWYRQAPGKERELVASISSGGSTNYADSVKGRFTISRDNAKNTVYLQMNSMKPEDTAVYYCAAEWVWYKWEFEYWGQGTQVSVSS | high polyreactivity
27 | QVQLVESGGGLVQAGGSLRLSCAASGSIFDGYALGWYRQAPGKEREFVAAIDTGDTRTYYADSVKGRFTISRDNAKNTVYLQMNSLKPEDTAVYYCNADDWAYGMDYWGQGTQVTVSS | low polyreactivity
28 | QVQLVESGGGLVQAGGSLRLSCAASGSIFDGYAMGWYRQAPGKERELVAAISQRGGSTYYADSVKGRFTISRDNAKNTVYLQMNSLKPEDTAVYYCAADSSYGTREYWGQGTQVTVSS | low polyreactivity
29 | QVQLVESGGGLVQAGGSLRLSCAASGSIFDGYAMGWYRQAPGKERELVAAISSGGSTYYADSVKGRFTISRDNAKNTVYLQMNSLKPEDTAVYYCNRVRRRVSTSIYNYWGQGTQVTVSS | high polyreactivity
30 | QVQLVESGGGLVQAGGSLRLSCAASGSIFDGYAMGWYRQAPGKERELVAAISSSGVTTYYADSVKGRFTISRDNAKNTVYLQMNSLKPEDTAVYYCATYSYTWLNYYWGQGTQVTVSS | high polyreactivity
31 | QVQLVESGGGLVQAGGSLRLSCAASGSIFDLNAMGWYRQAPGKERELVAAISKSGGSTYYADSVKGRFTISRDNAKNTVYLQMISLKPEDSAVYYCAARYHYPGNWYNYWGQGTQVTVSS | low polyreactivity
32 | QVQLVESGGGLVQAGGSLRLSCAASGSIFDLNAMGWYRQAPGKERELVAAISSGGGTYYADSVKGRFTISRDNAKNTVYFQMNSLKPEDTAVYYCNRVTRWTYNYWGQGTQVTVSS | high polyreactivity
33 | QVQLVESGGGLVQAGGSLRLSCAASGSIFDLYTMGWYRQAPGTERELVAAISRSGGSTYYADSVKGRFTISRDNAKNTVYLQMNSLKPEDTAVYYCAARGPYRPPHGDAYYTYGYWGQGTQVTVSS | high polyreactivity
34 | QVQLVESGGGLVQAGGSLRLSCAASGSIFDPNAMGWYRQAPGKERELVAAINSGGSTDYADSVKGRFTISRDNAKNTVYLQMNSLKPEDTAVYYCNAEYGYSGVGDDYWGQGTQVTVSS | low polyreactivity
35 | QVQLVESGGGLVQAGGSLRLSCAASGSIFDPYAMGWYRQAPGKETELDAAITASGSSTYYADSVKGRFTISRDNAKNTVYLQMNSLKPEDTAVYYCAADRANWEYLLSWLGYDYWGQGTQVTVSS | low polyreactivity
36 | QVQLVESGGGLVQAGGSLRLSCAASGSIFDRYDMGWYRQAPGKERELVAAISTGGSTNYADSVKGRFTISRDNAKNTVYLHMNSLKPEDTAVYYCADRYLYRMYYWGQCTQVTVSS | low polyreactivity
37 | QVQLVESGGGLVQAGGSLRLSCAASGSIFDSNAMGRYRQAPGKERELVAAISLSGGSTYYADSVKGRFTISRDNAKNTVYLQMNSLKPVDTAVYYCAKDGWYEYYWGQGTQVTVSS | low polyreactivity
38 | QVQLVESGGGLVQAGGSLRLSCAASGSIFDSNAMGWYRQAPGKETELVASITSDGDTYYADSVKGRFTISRDNAKNTVYLQIKSVKPEDTAVYYCAAYVPYSGLDYWGQGTQVTVSS | low polyreactivity
39 | QVQLVESGGGLVQAGGSLRLSCAASGSIFDSNTMGWYRQAPRKERELVAAITGTGTSTYYADSVKGRFTISRDNAKNTVYLQMNSLKPEDTAVYYCAADLEYKTWWYDYWGQGTQVTVSS | low polyreactivity
40 | QVQLVESGGGLVQAGGSLRLSCAASGSIFDSYAMGWYRQAPGKERELVADITSDGSTHYADSVKGRFTISRDNAKNTVYLQMNSLKAEDTAVYYCAADYFFYWLGVPVVDVYYWGQGTQVTVSS | low polyreactivity
41 | QVQLVESGGGLVQAGGSLRLSCAASGSIFDSYDRGWYREAPGKERELVAAITSGGSTNYADSVKGRFTISRDNAKNTVYLQMNSLKPEDTAVYYCAAYYWYPVYYGYDYGGQGTQVTVSS | low polyreactivity
